Source: the RNAGym collection of RNA variant scans (doi:10.7554/elife.90254)

B1: LINE1-full (parent)
chain: UACGUAGGUGGUUUUCCCCUGAUAGUGCUAAGGGGGCCUGGAAGUUUGGACUGGGCAGAGCUCAACACAGCGUGGCAAAGUGGCUGUGGCUAGACUGCCUCUCUGGAUUCCUCGUCACUCAGCAGGGCAUCUCUGAGAGAAAUGCC

Variants of: B1
Assay: self-cleavage, relative activity (ratio to wild type); higher = more cleavage; in vitro, sequencing; the parent is a self-cleaving ribozyme

Going from UACGAAGGUGGUUUUCCCCUGAUAGUGCUAAGGGGGCCUGGAAGUUUGGACUGGGCAGAGCUCAACACAGCGUGGCAAAGUGGCUGUGGCUAGACUGUCUCUCUGGAUUCCUCGUCACUCAGCAGGGCAUCUCUGAGAGAAAUGCC [U5A C98U] to UACGAAGGUGGUUUUCCCCUGAUAGUGCUAAGGGGGCCUGGAAGUUUGGACUGGGCAGAGCUCAACACAGCGUGGCAAAGUGGCUGUGGCUAGACUGCCACUCUGGAUUCCUCGUCACUCAGCAGGGCAUCUCUGAGAGAAAUGCC [U5A U100A], the self-cleavage falls from 0.53 to 0.51.

First: UACGAAGGUGGUUUUCCCCUGAUAGUGCUAAGGGGGCCUGGAAGUUUGGACUGGGCAGAGCUCAACACAGCGUGGCAAAGUGGCUGUGGCUAGACUGCCCCUCUGGAUUCCUCGUCACUCAGCAGGGCAUCUCUGAGAGAAAUGCC [U5A U100C]
Second: UACGAAGGUGGUUUUCCCCUGAUAGUGCUAAGGGGGCCUGGAAGUUUGGACUGGGCAGAGCUCAACACAGCGUGGCAAAGUGGCUGUGGCUAGACUGCCUCUCUGGAUUCCUCGUCACUCAGCAGGGCAUCCCUGAGAGAAAUGCC [U5A U132C]
The self-cleavage of the first is lower: 0.82 for the first, 1.25 for the second.

First: UACGAAGGUGGUUUUCCCCAGAUAGUGCUAAGGGGGCCUGGAAGUUUGGACUGGGCAGAGCUCAACACAGCGUGGCAAAGUGGCUGUGGCUAGACUGCCUCUCUGGAUUCCUCGUCACUCAGCAGGGCAUCUCUGAGAGAAAUGCC [U5A U20A]
Second: UACGAAGGUGGUUUUCCCCUGAUAGUGCUAAGGUGGCCUGGAAGUUUGGACUGGGCAGAGCUCAACACAGCGUGGCAAAGUGGCUGUGGCUAGACUGCCUCUCUGGAUUCCUCGUCACUCAGCAGGGCAUCUCUGAGAGAAAUGCC [U5A G34U]
The self-cleavage of the first is higher: 1.12 for the first, 0.88 for the second.

Going from UACGAAGGUGGUUAUCCCCUGAUAGUGCUAAGGGGGCCUGGAAGUUUGGACUGGGCAGAGCUCAACACAGCGUGGCAAAGUGGCUGUGGCUAGACUGCCUCUCUGGAUUCCUCGUCACUCAGCAGGGCAUCUCUGAGAGAAAUGCC [U5A U14A] to UACGAAGGUGGUUCUCCCCUGAUAGUGCUAAGGGGGCCUGGAAGUUUGGACUGGGCAGAGCUCAACACAGCGUGGCAAAGUGGCUGUGGCUAGACUGCCUCUCUGGAUUCCUCGUCACUCAGCAGGGCAUCUCUGAGAGAAAUGCC [U5A U14C], the self-cleavage falls from 1.15 to 0.85.

Going from UACGAAGGUGGUUUUCCCCUGAUAGUGCUAAGGGGGCCUGGAAGUUUGGACUGGGCAGAGAUCAACACAGCGUGGCAAAGUGGCUGUGGCUAGACUGCCUCUCUGGAUUCCUCGUCACUCAGCAGGGCAUCUCUGAGAGAAAUGCC [U5A C61A] to UACGAAGGUGGUCUUCCCCUGAUAGUGCUAAGGGGGCCUGGAAGUUUGGACUGGGCAGAGCUCAACACAGCGUGGCAAAGUGGCUGUGGCUAGACUGCCUCUCUGGAUUCCUCGUCACUCAGCAGGGCAUCUCUGAGAGAAAUGCC [U5A U13C], the self-cleavage rises from 0.03 to 0.99.

Compared with UACGAAGGAGGUUUUCCCCUGAUAGUGCUAAGGGGGCCUGGAAGUUUGGACUGGGCAGAGCUCAACACAGCGUGGCAAAGUGGCUGUGGCUAGACUGCCUCUCUGGAUUCCUCGUCACUCAGCAGGGCAUCUCUGAGAGAAAUGCC [U5A U9A], UACGAAGGUGGUUUUCCCCUGAUAGUGCUAAGGGGGCCUGGAAGUUUGGACUGGGCAGAGCUCAACACAGCGUGGCAAAGUGGCUGUGGCUAGACUGCCUCUCUGGAUUUCUCGUCACUCAGCAGGGCAUCUCUGAGAGAAAUGCC [U5A C110U] is higher in self-cleavage: 0 for the first, 0.34 for the second.

Going from UACGAAGGUGGUUUUCCCCUGAUAGUGCUAAGGGGGCCUGGAAGUUUGGACUGGGCAGAGCCCAACACAGCGUGGCAAAGUGGCUGUGGCUAGACUGCCUCUCUGGAUUCCUCGUCACUCAGCAGGGCAUCUCUGAGAGAAAUGCC [U5A U62C] to UACGAAGGUGGUUUUCCCCUGAUAGUGCUAAGGGGGCCUGGAAGUUUGGACUGGGCAGAGCUCAACACAGCGUGGCAAAGUGGCUGAGGCUAGACUGCCUCUCUGGAUUCCUCGUCACUCAGCAGGGCAUCUCUGAGAGAAAUGCC [U5A U87A], the self-cleavage rises from 0.05 to 0.15.

Going from UACGAAGGUGGUUUUCCCCUGAUAGUGCUAAGGGGGCCUGGAAGUUUGGACUGGGCAGAGCUCAACACAGCGUGGCAAAGUGGCUGUGGGUAGACUGCCUCUCUGGAUUCCUCGUCACUCAGCAGGGCAUCUCUGAGAGAAAUGCC [U5A C90G] to UACGAAGGUGGUUUUCCCCUGAUAGUGCUAAGGGGGCCUGGAAAUUUGGACUGGGCAGAGCUCAACACAGCGUGGCAAAGUGGCUGUGGCUAGACUGCCUCUCUGGAUUCCUCGUCACUCAGCAGGGCAUCUCUGAGAGAAAUGCC [U5A G44A], the self-cleavage rises from 0.09 to 0.81.

Going from UACGAAGGUGGUUUUCCCCUGAUAGUGCUAAGGGGGCCUGGAAGUUUGGACUGGGCAGAGCUCAACACAGCGUGGCAAAGUGGCUGUGGCUAGACUGCCUCUCUGGAUUCCUCGUCACUCAGCAGGGCACCUCUGAGAGAAAUGCC [U5A U130C] to UACGAAGGUGGUUUUCCCCUGAUAGUGCUAAGGGGGCCUGGAAGUUUGGACUGGGCAGAGCUCAACACAGCGUGGCAAAGUGGCUGUGGCUAGACUGCCUCUCUGGAUUCCCCGUCACUCAGCAGGGCAUCUCUGAGAGAAAUGCC [U5A U112C], the self-cleavage falls from 0.96 to 0.71.

Work on UACGAAGGUGGUUUCCCCCUGAUAGUGCUAAGGGGGCCUGGAAGUUUGGACUGGGCAGAGCUCAACACAGCGUGGCAAAGUGGCUGUGGCUAGACUGCCUCUCUGGAUUCCUCGUCACUCAGCAGGGCAUCUCUGAGAGAAAUGCC [U5A U15C] yielded a self-cleavage of 0.94.
